What was measured:
[1] = tested on: HeLa Kyoto; experiment: solubility in G1/S (NP-40 vs SDS abundance) (log2 ratio); higher = more soluble; settings: cell cycle stage: G1/S
[2] = tested on: HeLa Kyoto; experiment: melting temperature (median over replicates), in situ; higher = more thermally stable
[3] = tested on: HeLa Kyoto; experiment: solubility change mitosis vs G1/S (difference of NP-40 vs SDS log2 ratios) (log2 ratio difference); higher = more soluble in mitosis
[4] = tested on: HeLa Kyoto; experiment: thermal stability score vs G1/S (z-score of summed log2 fold changes over temperatures); higher = more thermally stable than in G1/S
[5] = cell cycle stage: early G1 (4.5 h after nocodazole release)
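Wherever melting temperature (median over replicates), in situ is given: HeLa Kyoto cells synchronized by double thymidine or nocodazole block, proteins quantified by TMT10plex mass spectrometry, three independent biological replicates.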
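Wherever solubility change mitosis vs G1/S (difference of NP-40 vs SDS log2 ratios) is given: synchronized HeLa Kyoto cells (double thymidine block for G1/S, nocodazole release for mitosis), protein amounts in NP-40 versus SDS lysates quantified by mass spectrometry, three biological replicates.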
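Wherever solubility in G1/S (NP-40 vs SDS abundance) is given: HeLa Kyoto cells arrested at G1/S by double thymidine block, proteins quantified by TMT10plex mass spectrometry in mild NP-40 versus SDS extracts, three biological replicates.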
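Wherever thermal stability score vs G1/S (z-score of summed log2 fold changes over temperatures) is given: synchronized HeLa Kyoto cells, proteins quantified by TMT10plex mass spectrometry, three biological replicates, mitosis taken 0.5 h after nocodazole release, G1/S directly after double thymidine block.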

Row | Substance | solubility in G1/S (log2) [1] | melting temperature ([2]; cell cycle stage: G1/S) | melting temperature ([2]; cell cycle stage: mitosis) | solubility change mitosis (log2) [3] | thermal stability score [4, 5] | thermal stability score ([4]; cell cycle stage: mitosis)
1 | MGSPEDDLIGIPFPDHSSELLSCLNEQRQLGHLCDLTIRTQGLEYRTHRAVLAACSHYFKKLFTEGGGGAVMGAGGSGTATGGAGAGVCELDFVGPEALGALLEFAYTATLTTSSANMPAVLQAARLLEIPCVIAACMEILQGSGLEAPSPDEDDCERARQYLEAFATATASGVPNGEDSPPQVPLPPPPPPPPRPVARRSRKPRKAFLQTKGARANHLVPEVPTVPAHPLTYEEEEVAGRVGSSGGSGPGDSYSPPTGTASPPEGPQSYEPYEGEEEEEELVYPPAYGLAQGGGPPLSPEELGSDEDAIDPDLMAYLSSLHQDNLAPGLDSQDKLVRKRRSQMPQECPVCHKIIHGAGKLPRHMRTHTGEKPFACEVCGVRFTRNDKLKIHMRKHTGERPYSCPHCPARFLHSYDLKNHMHLHTGDRPYECHLCHKAFAKEDHLQRHLKGQNCLEVRTRRRRKDDAPPHYPPPSTAAASPAGLDLSNGHLDTFRLSLARFWEQSAPTGPPVSTPGPPDDDEEEGAPTTPQAEGAMESS [ZBTB7B] | -0.127 | 54.7 °C | 55 °C | 0.171 | 1.42 | 0.814
2 | MGSPLRFDGRVVLVTGAGAGLGRAYALAFAERGALVVVNDLGGDFKGVGKGSLAADKVVEEIRRRGGKAVANYDSVEEGEKVVKTALDAFGRIDVVVNNAGILRDRSFARISDEDWDIIHRVHLRGSFQVTRAAWEHMKKQKYGRIIMTSSASGIYGNFGQANYSAAKLGLLGLANSLAIEGRKSNIHCNTIAPNAGSRMTQTVMPEDLVEALKPEYVAPLVLWLCHESCEENGGLFEVGAGWIGKLRWERTLGAIVRQKNHPMTPEAVKANWKKICDFENASKPQSIQESTGSIIEVLSKIDSEGGVSANHTSRATSTATSGFAGAIGQKLPPFSYAYTELEAIMYALGVGASIKDPKDLKFIYEGSSDFSCLPTFGVIIGQKSMMGGGLAEIPGLSINFAKVLHGEQYLELYKPLPRAGKLKCEAVVADVLDKGSGVVIIMDVYSYSEKELICHNQFSLFLVGSGGFGGKRTSDKVKVAVAIPNRPPDAVLTDTTSLNQAALYRLSGDWNPLHIDPNFASLAGFDKPILHGLCTFGFSARRVLQQFADNDVSRFKAIKARFAKPVYPGQTLQTEMWKEGNRIHFQTKVQETGDIVISNAYVDLAPTSGTSAKTPSEGGKLQSTFVFEEIGRRLKDIGPEVVKKVNAVFEWHITKGGNIGAKWTIDLKSGSGKVYQGPAKGAADTTIILSDEDFMEVVLGKLDPQKAFFSGRLKARGNIMLSQKLQMILKDYAKL [HSD17B4] | 0.00461 | 54.2 °C | 54.1 °C | -0.0933 | 0.589 | 0.868
3 | MGVQPPNFSWVLPGRLAGLALPRLPAHYQFLLDLGVRHLVSLTERGPPHSDSCPGLTLHRLRIPDFCPPAPDQIDRFVQIVDEANARGEAVGVHCALGFGRTGTMLACYLVKERGLAAGDAIAEIRRLRPGSIETYEQEKAVFQFYQRTK [DUSP23] | 0.00547 | 52.5 °C | 52.9 °C | -0.112 | 0.571 | -0.468
4 | MGVRGLQGFVGSTCPHICTVVNFKELAEHHRSKYPGCTPTIVVDAMCCLRYWYTPESWICGGQWREYFSALRDFVKTFTAAGIKLIFFFDGMVEQDKRDEWVKRRLKNNREISRIFHYIKSHKEQPGRNMFFIPSGLAVFTRFALKTLGQETLCSLQEADYEVASYGLQHNCLGILGEDTDYLIYDTCPYFSISELCLESLDTVMLCREKLCESLGLCVADLPLLACLLGNDIIPEGMFESFRYKCLSSYTSVKENFDKKGNIILAVSDHISKVLYLYQGEKKLEEILPLGPNKALFYKGMASYLLPGQKSPWFFQKPKGVITLDKQVISTSSDAESREEVPMCSDAESRQEVPMCTGPESRREVPVYTDSEPRQEVPMCSDPEPRQEVPTCTGPESRREVPMCSDPEPRQEVPMCTGPEARQEVPMYTDSEPRQEVPMYTDSEPRQEVPMYTGSEPRQEVPMYTGPESRQEVPMYTGPESRQEVLIRTDPESRQEIMCTGHESKQEVPICTDPISKQEDSMCTHAEINQKLPVATDFEFKLEALMCTNPEIKQEDPTNVGPEVKQQVTMVSDTEILKVARTHHVQAESYLVYNIMSSGEIECSNTLEDELDQALPSQAFIYRPIRQRVYSLLLEDCQDVTSTCLAVKEWFVYPGNPLRHPDLVRPLQMTIPGGTPSLKILWLNQEPEIQVRRLDTLLACFNLSSSREELQAVESPFQALCCLLIYLFVQVDTLCLEDLHAFIAQALCLQGKSTSQLVNLQPDYINPRAVQLGSLLVRGLTTLVLVNSACGFPWKTSDFMPWNVFDGKLFHQKYLQSEKGYAVEVLLEQNRSRLTKFHNLKAVVCKACMKENRRITGRAHWGSHHAGRWGRQGSSYHRTGSGYSRSSQGQPWRDQGPGSRQYEHDQWRRY [FAM120B] | -0.319 | 50.2 °C | 49.1 °C | -0.0624 | 1.29 | 1.3
5 | MHGRLKVKTSEEQAEAKRLEREQKLKLYQSATQAVFQKRQAGELDESVLELTSQILGANPDFATLWNCRREVLQQLETQKSPEELAALVKAELGFLESCLRVNPKSYGTWHHRCWLLGRLPEPNWTRELELCARFLEVDERNFHCWDYRRFVATQAAVPPAEELAFTDSLITRNFSNYSSWHYRSCLLPQLHPQPDSGPQGRLPEDVLLKELELVQNAFFTDPNDQSAWFYHRWLLGRADPQDALRCLHVSRDEACLTVSFSRPLLVGSRMEILLLMVDDSPLIVEWRTPDGRNRPSHVWLCDLPAASLNDQLPQHTFRVIWTAGDVQKECVLLKGRQEGWCRDSTTDEQLFRCELSVEKSTVLQSELESCKELQELEPENKWCLLTIILLMRALDPLLYEKETLQYFQTLKAVDPMRATYLDDLRSKFLLENSVLKMEYAEVRVLHLAHKDLTVLCHLEQLLLVTHLDLSHNRLRTLPPALAALRCLEVLQASDNAIESLDGVTNLPRLQELLLCNNRLQQPAVLQPLASCPRLVLLNLQGNPLCQAVGILEQLAELLPSVSSVLT [RABGGTA] | 0.0201 | 53.8 °C | 53.3 °C | -0.067 | -0.496 | -1.06
6 | MHKHQHCCKCPECYEVTRLAALRRLEPPGYGDWQVPDPYGPGGGNGASAGYGGYSSQTLPSQAGATPTPRTKAKLIPTGRDVGPVPPKPVPGKSTPKLNGSGPSWWPECTCTNRDWYEQVNGSDGMFKYEEIVLERGNSGLGFSIAGGIDNPHVPDDPGIFITKIIPGGAAAMDGRLGVNDCVLRVNEVDVSEVVHSRAVEALKEAGPVVRLVVRRRQPPPETIMEVNLLKGPKGLGFSIAGGIGNQHIPGDNSIYITKIIEGGAAQKDGRLQIGDRLLAVNNTNLQDVRHEEAVASLKNTSDMVYLKVAKPGSLHLNDMYAPPDYASTFTALADNHISHNSSLGYLGAVESKVSYPAPPQVPPTRYSPIPRHMLAEEDFTREPRKIILHKGSTGLGFNIVGGEDGEGIFVSFILAGGPADLSGELRRGDRILSVNGVNLRNATHEQAAAALKRAGQSVTIVAQYRPEEYSRFESKIHDLREQMMNSSMSSGSGSLRTSEKRSLYVRALFDYDRTRDSCLPSQGLSFSYGDILHVINASDDEWWQARLVTPHGESEQIGVIPSKKRVEKKERARLKTVKFHARTGMIESNRDFPGLSDDYYGAKNLKGQEDAILSYEPVTRQEIHYARPVIILGPMKDRVNDDLISEFPHKFGSCVPHTTRPRRDNEVDGQDYHFVVSREQMEKDIQDNKFIEAGQFNDNLYGTSIQSVRAVAERGKHCILDVSGNAIKRLQQAQLYPIAIFIKPKSIEALMEMNRRQTYEQANKIYDKAMKLEQEFGEYFTAIVQGDSLEEIYNKIKQIIEDQSGHYIWVPSPEKL [DLG3] | 0.141 | 52.9 °C | 53.1 °C | -0.139 | -0.454 | -1.05
7 | MHPPETTTKMASVRFMVTPTKIDDIPGLSDTSPDLSSRSSSRVRFSSRESVPETSRSEPMSEMSGATTSLATVALDPPSDRTSHPQDVIEDLSQNSITGEHSQLLDDGHKKARNAYLNNSNYEEGDEYFDKNLALFEEEMDTRPKVSSLLNRMANYTNLTQGAKEHEEAENITEGKKKPTKTPQMGTFMGVYLPCLQNIFGVILFLRLTWVVGTAGVLQAFAIVLICCCCTMLTAISMSAIATNGVVPAGGSYFMISRALGPEFGGAVGLCFYLGTTFAAAMYILGAIEIFLVYIVPRAAIFHSDDALKESAAMLNNMRVYGTAFLVLMVLVVFIGVRYVNKFASLFLACVIVSILAIYAGAIKSSFAPPHFPVCMLGNRTLSSRHIDVCSKTKEINNMTVPSKLWGFFCNSSQFFNATCDEYFVHNNVTSIQGIPGLASGIITENLWSNYLPKGEIIEKPSAKSSDVLGSLNHEYVLVDITTSFTLLVGIFFPSVTGIMAGSNRSGDLKDAQKSIPIGTILAILTTSFVYLSNVVLFGACIEGVVLRDKFGDAVKGNLVVGTLSWPSPWVIVIGSFFSTCGAGLQSLTGAPRLLQAIAKDNIIPFLRVFGHSKANGEPTWALLLTAAIAELGILIASLDLVAPILSMFFLMCYLFVNLACALQTLLRTPNWRPRFRYYHWALSFMGMSICLALMFISSWYYAIVAMVIAGMIYKYIEYQGAEKEWGDGIRGLSLSAARFALLRLEEGPPHTKNWRPQLLVLLKLDEDLHVKHPRLLTFASQLKAGKGLTIVGSVIVGNFLENYGEALAAEQTIKHLMEAEKVKGFCQLVVAAKLREGISHLIQSCGLGGMKHNTVVMGWPNGWRQSEDARAWKTFIGTVRVTTAAHLALLVAKNISFFPSNVEQFSEGNIDVWWIVHDGGMLMLLPFLLKQHKVWRKCSIRIFTVAQLEDNSIQMKKDLATFLYHLRIEAEVEVVEMHDSDISAYTYERTLMMEQRSQMLRHMRLSKTERDREAQLVKDRNSMLRLTSIGSDEDEETETYQEKVHMTWTKDKYMASRGQKAKSMEGFQDLLNMRPDQSNVRRMHTAVKLNEVIVNKSHEAKLVLLNMPGPPRNPEGDENYMEFLEVLTEGLERVLLVRGGGSEVITIYS [SLC12A6] | -0.0182 | 54.8 °C | 54.4 °C | 0.00121 | -0.231 | -0.0357
8 | MHPPKTPSGALHRKRKMAAWPFSRLWKVSDPILFQMTLIAALLPAVLGNCGPPPTLSFAAPMDITLTETRFKTGTTLKYTCLPGYVRSHSTQTLTCNSDGEWVYNTFCIYKRCRHPGELRNGQVEIKTDLSFGSQIEFSCSEGFFLIGSTTSRCEVQDRGVGWSHPLPQCEIVKCKPPPDIRNGRHSGEENFYAYGFSVTYSCDPRFSLLGHASISCTVENETIGVWRPSPPTCEKITCRKPDVSHGEMVSGFGPIYNYKDTIVFKCQKGFVLRGSSVIHCDADSKWNPSPPACEPNSCINLPDIPHASWETYPRPTKEDVYVVGTVLRYRCHPGYKPTTDEPTTVICQKNLRWTPYQGCEALCCPEPKLNNGEITQHRKSRPANHCVYFYGDEISFSCHETSRFSAICQGDGTWSPRTPSCGDICNFPPKIAHGHYKQSSSYSFFKEEIIYECDKGYILVGQAKLSCSYSHWSAPAPQCKALCRKPELVNGRLSVDKDQYVEPENVTIQCDSGYGVVGPQSITCSGNRTWYPEVPKCEWETPEGCEQVLTGKRLMQCLPNPEDVKMALEVYKLSLEIEQLELQRDSARQSTLDKEL [C4BPA] | -0.459 | 54.4 °C | 56.1 °C | -0.146 | 5.62 | 9.17
9 | MHSRGREIVVLLNPWSINEAVSSYCTYFIKQDSKSFGIMVSWKGIYFILTLFWGSFFGSIFMLSPFLPLMFVNPSWYRWINNRLVATWLTLPVALLETMFGVKVIITGDAFVPGERSVIIMNHRTRMDWMFLWNCLMRYSYLRLEKICLKASLKGVPGFGWAMQAAAYIFIHRKWKDDKSHFEDMIDYFCDIHEPLQLLIFPEGTDLTENSKSRSNAFAEKNGLQKYEYVLHPRTTGFTFVVDRLREGKNLDAVHDITVAYPHNIPQSEKHLLQGDFPREIHFHVHRYPIDTLPTSKEDLQLWCHKRWEEKEERLRSFYQGEKNFYFTGQSVIPPCKSELRVLVVKLLSILYWTLFSPAMCLLIYLYSLVKWYFIITIVIFVLQERIFGGLEIIELACYRLLHKQPHLNSKKNE [LCLAT1] | -0.201 | 55.1 °C | 54.7 °C | -0.165 | -2.01 | -2.82
10 | MIA3 | 0.245 | 51.4 °C | 52.2 °C | -0.082 | 3.98 | 7.12
